Source: publication PMC8781159, “Implication of Potential Differential Roles of the Two Phosphoglucomutase Isoforms in the Protozoan Parasite Cryptosporidium parvum” (Pathogens, 2021)

T1: CpPGM1B long form (rCpPGM1B-L) (Cryptosporidium parvum, UniProt Q5CTF2)
T1 construct: gene cgd2_3270; linker plus PGM1 domain; signal peptide (63 nt) removed (full ORF 2013 bp); MBP-fusion (pMAL-c5x), E. coli BL21(DE3), MBP kept
T1 sequence (Q5CTF2 24-670): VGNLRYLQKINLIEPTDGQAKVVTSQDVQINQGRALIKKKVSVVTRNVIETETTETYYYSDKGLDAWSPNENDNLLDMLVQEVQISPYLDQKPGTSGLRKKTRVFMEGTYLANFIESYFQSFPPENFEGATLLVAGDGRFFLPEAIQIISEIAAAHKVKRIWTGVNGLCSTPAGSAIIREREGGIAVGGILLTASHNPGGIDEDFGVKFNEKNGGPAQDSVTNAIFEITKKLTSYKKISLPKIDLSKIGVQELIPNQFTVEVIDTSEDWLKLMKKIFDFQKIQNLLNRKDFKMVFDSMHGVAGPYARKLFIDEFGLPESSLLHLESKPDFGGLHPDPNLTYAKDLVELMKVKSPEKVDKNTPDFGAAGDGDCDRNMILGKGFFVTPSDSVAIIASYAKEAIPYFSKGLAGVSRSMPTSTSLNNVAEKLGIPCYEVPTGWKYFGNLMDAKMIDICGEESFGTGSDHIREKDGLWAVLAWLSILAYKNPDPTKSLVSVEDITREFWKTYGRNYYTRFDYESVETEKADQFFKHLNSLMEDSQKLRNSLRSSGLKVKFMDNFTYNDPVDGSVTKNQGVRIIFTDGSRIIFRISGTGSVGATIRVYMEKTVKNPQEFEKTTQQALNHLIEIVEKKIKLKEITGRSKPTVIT

B1: CpPGM1A (rCpPGM1A) (Cryptosporidium parvum) (protein)
chain: MEQVQVTPYLDQKPGTSGLRKKTRVFMEGTYLANFIESYFQSFPPENFEGATLLVAGDGRFFLPEAIQIISEIAAAHKVKRIWTGVNGLCSTPAGSAIIREREGGIAVGGILLTASHNPGGIDEDFGVKFNGKNGGPAQDSVTNTIFEITKKLTSYKKISLPKIDLSKIGVQELIPNQFTVEVIDTSEDWLKLMKKIFDFQKIQNLLNRKDFKMAFDSMHGVAGPYARKLFVDEFGLPESSLLHLESKPDFGGLHPDPNLTYAKDLVELMKVKSPEKVDKSTPDFGAAGDGDCDRNMILGKGFFVTPSDSVAIIASYAKEAIPYFSKGLAGVSRSMPTSTSLNNVAEKLGIPCYEVPTGWKYFGNLMDAKMIDICGEESFGTGSDHIREKDGLWAVLAWLSILAHKNPDPTKPLVSVEDITREFWKTYGRNYYTRFDYESIETEKADQFFKHLNSLMEDHQKLREIIKPYGIDIKLTDNFTYNDPVDKSVAKNQGLRFIFQDNSRVVFRLSGTGSVGATIRIYIEKTVSDQTKVNSTSNEILGDLIEIVEKKIKLKESTGRDRPTVIT
B2: CpPGM1B short form (rCpPGM1B-S) (Cryptosporidium parvum Iowa II) (protein)
chain: LLDMLVQEVQISPYLDQKPGTSGLRKKTRVFMEGTYLANFIESYFQSFPPENFEGATLLVAGDGRFFLPEAIQIISEIAAAHKVKRIWTGVNGLCSTPAGSAIIREREGGIAVGGILLTASHNPGGIDEDFGVKFNEKNGGPAQDSVTNAIFEITKKLTSYKKISLPKIDLSKIGVQELIPNQFTVEVIDTSEDWLKLMKKIFDFQKIQNLLNRKDFKMVFDSMHGVAGPYARKLFIDEFGLPESSLLHLESKPDFGGLHPDPNLTYAKDLVELMKVKSPEKVDKNTPDFGAAGDGDCDRNMILGKGFFVTPSDSVAIIASYAKEAIPYFSKGLAGVSRSMPTSTSLNNVAEKLGIPCYEVPTGWKYFGNLMDAKMIDICGEESFGTGSDHIREKDGLWAVLAWLSILAYKNPDPTKSLVSVEDITREFWKTYGRNYYTRFDYESVETEKADQFFKHLNSLMEDSQKLRNSLRSSGLKVKFMDNFTYNDPVDGSVTKNQGVRIIFTDGSRIIFRISGTGSVGATIRVYMEKTVKNPQEFEKTTQQALNHLIEIVEKKIKLKEITGRSKPTVIT
notes: PGM1 domain only; signal peptide and ~80 aa linker removed (full ORF 2013 bp); MBP-fusion (pMAL-c5x), E. coli BL21(DE3), MBP kept

Assays:
[1] = target: T1, CpPGM1B long form (rCpPGM1B-L); experiment: G6PDH-coupled assay, NADH formation at […] nm; type: biochemical; conditions: 50 mM Tris-HCl pH 8.5, 1.0 mM MgCl2, 0.2 mM NAD+, 2 mM G1P
purified protein = substrate: O=P(O)(O)O[C@H]1O[C@H](CO)[C@@H](O)[C@H](O)[C@H]1O; experiment: purified protein; type: biochemical, Cryptosporidium parvum; conditions: 50 mM Tris-HCl pH 8.5, 1.0 mM MgCl2, 0.2 mM NAD+

Molecule	G6PDH-coupled assay, NADH formation at 340 nm [1]	Km (purified protein)
O=P(O)(O)O[C@H]1O[C@H](CO)[C@@H](O)[C@H](O)[C@H]1O [G1P, glucose-1-phosphate]	rCpPGM1A, rCpPGM1B-L and rCpPGM1B-S) displayed activity in converting G1P to G6P	–
B1	–	0.17 mM
B2	–	0.13 mM
